The data set in a line: collision cross section of modified peptide (TIMS, N2, iRT-aligned); higher = larger / more extended gas-phase ion. The procedure, abridged:
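Synthetic peptide pools (~100 fmol/µL in 2% acetonitrile/0.1% formic acid, iRT standard spiked 1:40) were separated on a 120-min nanoflow C18 gradient at 60 °C. They were analysed on a timsTOF Pro/HT (dda-PASEF, nitrogen, ~2.4 mbar) and identified with MaxQuant. 1/K0 was calibrated with three reference ions and aligned run-wise to the median iRT peptide deviation. Collision cross section came from the Mason-Schamp equation, averaging 1–3 technical replicates of the most abundant feature per charge state.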

Where [1] appears, read: charge state: 2, modification: Acetyl (K).
Setting [2] is: charge state: 2, modification: Nitro (Y).
Setting [3] is: charge state: 2, modification: Glutarylation.
[4] abbreviates: charge state: 2, modification: HexNAc (ST).
The mark [5] stands for this setting: charge state: 3, modification: HexNAc (ST).
Where [6] appears, read: charge state: 2, modification: GlyGly (K).
Setting [7] is: charge state: 3, modification: GlyGly (K).
Where [8] appears, read: charge state: 2, modification: Succinyl.
Where [9] appears, read: charge state: 3, modification: Succinyl.
Where [10] appears, read: charge state: 2, modification: Crotonyl.
Setting [11] is: charge state: 2, modification: Methyl (K).
[12] abbreviates: charge state: 3, modification: Methyl (K).
Setting [13] is: charge state: 2, modification: Formyl.
The mark [14] stands for this setting: charge state: 3, modification: Glutarylation.
Where [15] appears, read: charge state: 2, modification: Malonyl.
The mark [16] stands for this setting: charge state: 2, modification: Phospho (Y).
[17] abbreviates: charge state: 2, modification: Butyryl.
[18] abbreviates: charge state: 3, modification: Butyryl.
Where [19] appears, read: charge state: 2, modification: hydroxyisobutyryl.
The mark [20] stands for this setting: charge state: 3, modification: hydroxyisobutyryl.
The mark [21] stands for this setting: charge state: 3, modification: Formyl.

± gives the standard deviation.

The sequence SEASSEFAKK [_SEASSEFAK(Acetyl (K))K_] returned a collision cross section under setting [1] of 349.46 ± 1 Å².

VYPSSLSK [_VY(Nitro (Y))PSSLSK_]: under setting [2], the collision cross section came out at 327.32 ± 0.71 Å².

Consider TTEETSKPK [_TTEETSK(Gluratylation)PK_], for which the collision cross section under setting [3] is given as 352.76 ± 0.56 Å².

“DYSSGFGGKYGVQADR [_DYSSGFGGK(Propionyl)YGVQADR_]” registered a collision cross section (charge state: 2, modification: Propionyl) of 432.72 Å².

With “GRGAANDSTQFTVAGR [_GR(Methyl (R))GAANDSTQFTVAGR_]”, the collision cross section (charge state: 3, modification: Methyl (R)) is 468.2 ± 2.7 Å².

With “ISEILLDHGAPIQAK [_IS(HexNAc (ST))EILLDHGAPIQAK_]”, the collision cross section reads like this: under setting [4], 457.74 ± 0.56 Å²; under setting [5], 559.32 ± 1.1 Å².

In the case of KFGVLSDNFK [_K(GlyGly (K))FGVLSDNFK_], the collision cross section reads like this: under setting [6], 380.5 ± 0.25 Å²; under setting [7], 435.06 ± 2 Å².

As to “VLTANSNPSSPSAAKR [_VLTANSNPSSPSAAK(Succinyl)R_]”, the collision cross section was determined as 430.61 ± 1.1 Å² under setting [8] and 526.23 ± 1.1 Å² under setting [9].

Sequence “TPSSFRQPFTPTSR [_TPSSFR(Citrullination (R))QPFTPTSR_]” displayed a collision cross section (charge state: 3, modification: Citrullination (R)) of 499.72 Å².

Where the note is “charge state: 3, modification: Trimethyl (K)”, “LGNDFHTNKR [_LGNDFHTNK(Trimethyl (K))R_]” yielded a collision cross section of 415.91 ± 2.1 Å².

Turning to DLEEAEEYK [_DLEEAEEY(Nitro (Y))K_], the collision cross section under setting [2] is reported as 368.75 ± 2.1 Å².

Under setting [3], “GEVQVSDKER [_GEVQVSDK(Gluratylation)ER_]” showed a collision cross section of 368.37 ± 8.3 Å².

In turn, “LGGDLGTYVINK [_LGGDLGTY(Nitro (Y))VINK_]” registered a collision cross section under setting [2] of 371.97 ± 0.72 Å².

ITGKNQVTATK [_ITGK(Crotonyl)NQVTATK_]: the collision cross section under setting [10] is recorded as 369.54 ± 0.26 Å².

Take “FLQEFYQDDELGKK [_FLQEFYQDDELGK(Methyl (K))K_]”: the collision cross section turned out to be 445.9 ± 2.4 Å² under setting [11] and 499.81 ± 3 Å² under setting [12].

Turning to CYYGSDTAGR [_CY(Nitro (Y))YGSDTAGR_], the collision cross section under setting [2] is listed as 352.25 ± 0.8 Å².

The sequence “DTGEKLTVAENEAETK [_DTGEK(Crotonyl)LTVAENEAETK_]” came in with a collision cross section under setting [10] of 449.13 ± 0.83 Å².

In the case of SGKFTQQDIDEAK [_SGK(Formyl)FTQQDIDEAK_], the collision cross section under setting [13] was 408.45 ± 0.19 Å².

For IGAEVYHHLK [_IGAEVY(Nitro (Y))HHLK_], the collision cross section by setting is: under setting [2], 375.15 ± 0.55 Å²; (charge state: 3, modification: Nitro (Y)) 440.09 ± 1.8 Å².

For the sequence “STGLELETPSLVPVKK [_STGLELETPSLVPVK(Gluratylation)K_]”, the collision cross section reads like this: under setting [3], 457.67 ± 1.1 Å²; under setting [14], 527.31 ± 1.8 Å².

Under setting [15], “GFCFITYTDEEPVKK [_GFCFITYTDEEPVK(Malonyl)K_]” gave a collision cross section of 452.98 ± 0.65 Å².

In the case of “KITESVAETAQTIK [_KITESVAETAQT(HexNAc (ST))IK_]”, the collision cross section is, setting by setting: under setting [4], 451.91 ± 0.56 Å²; under setting [5], 504.11 ± 1.1 Å².

With “SGNLTEDDKHNNAK [_SGNLTEDDK(GlyGly (K))HNNAK_]”, the collision cross section is 432.48 ± 1.6 Å² under setting [6] and 495.64 ± 0.34 Å² under setting [7].

Sequence “VGIDTPDIDIHGPEGKLK [_VGIDTPDIDIHGPEGK(Malonyl)LK_]” displayed a collision cross section (charge state: 3, modification: Malonyl) of 540.98 Å².

In the case of SVSSSSYR [_SVSSSSY(Phospho (Y))R_], the collision cross section under setting [16] is 317.55 ± 0.69 Å².

Regarding “TFGKAAGPSLSHTSGGTQSK [_TFGK(Butyryl)AAGPSLSHTSGGTQSK_]”, the collision cross section runs as follows: under setting [17], 496.92 ± 1.5 Å²; under setting [18], 514.77 ± 3.5 Å².

Turning to “PANEKATDDYHYEK [_PANEK(Acetyl (K))ATDDYHYEK_]”, the collision cross section was found to be 436.41 ± 2.5 Å² under setting [1] and 502.57 ± 2 Å² (charge state: 3, modification: Acetyl (K)).

As for LSITGTYDLK [_LSITGTY(Phospho (Y))DLK_], the collision cross section under setting [16] was determined as 381.43 ± 0.65 Å².

As for “GFALVGVGSEASSKK [_GFALVGVGSEASSK(hydroxyisobutyryl)K_]”, the collision cross section by setting is: under setting [19], 419.49 ± 2.2 Å²; under setting [20], 502.54 ± 2.1 Å².

Consider “GTVPDDAVEALADSLGKK [_GTVPDDAVEALADSLGK(Methyl (K))K_]”, for which the collision cross section reads like this: under setting [11], 482.51 ± 3.5 Å²; under setting [12], 524.02 ± 2.6 Å².

On to YEATSVQQK [_Y(Nitro (Y))EATSVQQK_], for which the collision cross section under setting [2] is 342.71 ± 0.55 Å².

On to “IHVQSSSDSSDEPAEKR [_IHVQSSSDSSDEPAEK(Methyl (K))R_]”, for which the collision cross section by setting is: under setting [11], 448.84 Å²; under setting [12], 522.27 ± 1 Å².

Take “VNIGQGSHPQKVK [_VNIGQGSHPQK(Crotonyl)VK_]”: the collision cross section was found to be 430.6 ± 0.84 Å² under setting [10] and 487.14 ± 1.3 Å² (charge state: 3, modification: Crotonyl).

For DFDTALKHYDK [_DFDTALK(Formyl)HYDK_], the collision cross section is, setting by setting: under setting [13], 397.93 ± 1.3 Å²; under setting [21], 457.98 ± 2.1 Å².

Consider “LGVATVAKGVCGACK [_LGVATVAK(Biotin)GVCGACK_]”, for which the collision cross section is on record as 431.82 Å² (charge state: 2, modification: Biotin) and 507.7 Å² (charge state: 3, modification: Biotin).

With “SLEEEGAAHSGKR [_SLEEEGAAHSGK(Malonyl)R_]”, the collision cross section under setting [15] was 414.03 ± 1.2 Å².

For VGTASVLQPVKK [_VGTASVLQPVK(Butyryl)K_], the collision cross section under setting [17] was found to be 385.91 ± 0.85 Å².

Regarding SKLLFSNTAAQK [_SK(Malonyl)LLFSNTAAQK_], the collision cross section under setting [15] came to 394.73 ± 0.61 Å².

As to “VGLQVVAVKAPGFGDNR [_VGLQVVAVK(Butyryl)APGFGDNR_]”, the collision cross section was found to be 450.45 ± 0.52 Å² under setting [17] and 500.38 ± 1.9 Å² under setting [18].

On to “IISSIEQKEENK [_IISSIEQK(Methyl (K))EENK_]”, for which the collision cross section was 408.26 ± 2.5 Å² under setting [11] and 450.18 ± 5 Å² under setting [12].

Consider “ELANFDPSRPGPPSGR [_ELANFDPS(HexNAc (ST))RPGPPSGR_]”, for which the collision cross section under setting [5] was 503.12 ± 0.18 Å².

On to ILDLKTGTVK [_ILDLK(Butyryl)TGTVK_], for which the collision cross section under setting [17] is 361.67 ± 1.2 Å².

As for “AGPNASIISLKSDK [_AGPNASIISLK(Malonyl)SDK_]”, the collision cross section under setting [15] is 411.98 ± 0.71 Å².

Turning to VETTVTSLKTK [_VETTVTSLK(Succinyl)TK_], the collision cross section is, setting by setting: under setting [8], 381.14 ± 3.4 Å²; under setting [9], 451.06 Å².

For “VLTANSNPSSPSAAKR [_VLTANSNPSSPSAAK(Dimethyl (K))R_]”, the collision cross section runs as follows: (charge state: 2, modification: Dimethyl (K)) 441.07 ± 1.1 Å²; (charge state: 3, modification: Dimethyl (K)) 518.06 ± 0.76 Å².

With GEVQVSDKER [_GEVQVSDK(GlyGly (K))ER_], the collision cross section is, setting by setting: under setting [6], 370.72 ± 1.1 Å²; under setting [7], 432.88 ± 2.5 Å².

Sequence “ITESVAETAQTIKK [_ITESVAETAQTIK(Formyl)K_]” gave a collision cross section under setting [13] of 415.52 ± 0.56 Å² and a collision cross section under setting [21] of 507.5 ± 1.5 Å².

Take “VYIASSSGSTAIKK [_VYIASSSGSTAIK(Succinyl)K_]”: the collision cross section is listed as 413.08 ± 1.1 Å² under setting [8] and 508.16 ± 1.6 Å² under setting [9].

On to ITASLCDLKSR [_ITASLCDLK(Malonyl)SR_], for which, under setting [15], the collision cross section worked out at 382.56 Å².

“DYVSQFEGSALGK [_DY(Phospho (Y))VSQFEGSALGK_]” came in with a collision cross section under setting [16] of 391.59 ± 0.64 Å².

“DSINFLDHINGKK [_DSINFLDHINGK(Gluratylation)K_]” had a collision cross section under setting [14] of 460.36 ± 1.7 Å².

In turn, “APVGSVVSVPSQSSASSDK [_APVGSVVSVPSQS(HexNAc (ST))SASSDK_]” yielded a collision cross section under setting [4] of 464.2 ± 0.14 Å².

For the sequence “SSGPGGQNVNKVNSK [_SSGPGGQNVNK(Butyryl)VNSK_]”, the collision cross section is listed as 405.84 ± 0.57 Å² under setting [17] and 443.95 ± 2 Å² under setting [18].

Consider “GEQGEPGAPGIRTGIQGLK [_GEQGEPGAP(Hydroxyproline)GIRTGIQGLK_]”, for which the collision cross section reads like this: (charge state: 2, modification: Hydroxyproline) 450.73 ± 0.4 Å²; (charge state: 3, modification: Hydroxyproline) 502.77 ± 1.3 Å².

Turning to “SLFFGGKGAPLQR [_SLFFGGK(Methyl (K))GAPLQR_]”, the collision cross section reads like this: under setting [11], 405.87 ± 0.92 Å²; under setting [12], 448.66 ± 4 Å².

Consider GGPGSTLSFVGKR [_GGPGSTLSFVGK(Formyl)R_], for which the collision cross section under setting [13] is 378.65 ± 0.9 Å².

On to “LQAAYAGDKADDIQK [_LQAAYAGDK(Succinyl)ADDIQK_]”, for which the collision cross section is, setting by setting: under setting [8], 436.68 ± 1.4 Å²; under setting [9], 489.74 ± 2.1 Å².

Turning to LGHYATQLQK [_LGHYAT(HexNAc (ST))QLQK_], the collision cross section under setting [4] came to 388.93 ± 0.68 Å² and the collision cross section under setting [5] was found to be 446.62 ± 0.17 Å².

As for “VNVEAPDVNLEGLGGKLK [_VNVEAPDVNLEGLGGK(hydroxyisobutyryl)LK_]”, the collision cross section runs as follows: under setting [19], 461.55 ± 2 Å²; under setting [20], 550.67 ± 0.8 Å².

(Values after the supplement of paper PMC10598134.)
